The target in series [1] is T1, IL1R1/IL1β/IL1RAP complex (Homo sapiens, UniProt Q9NPH3).
T1 construct: extracellular domain Fc-tagged, Cat #10121-H02H; Fc; purchased Sino Biological 10121-H02H (IL1RAP-Fc); 10126-H08H (IL1R1-His); 10139-HNAE (IL1β)
T1 sequence (Q9NPH3 21-367 limits assumed): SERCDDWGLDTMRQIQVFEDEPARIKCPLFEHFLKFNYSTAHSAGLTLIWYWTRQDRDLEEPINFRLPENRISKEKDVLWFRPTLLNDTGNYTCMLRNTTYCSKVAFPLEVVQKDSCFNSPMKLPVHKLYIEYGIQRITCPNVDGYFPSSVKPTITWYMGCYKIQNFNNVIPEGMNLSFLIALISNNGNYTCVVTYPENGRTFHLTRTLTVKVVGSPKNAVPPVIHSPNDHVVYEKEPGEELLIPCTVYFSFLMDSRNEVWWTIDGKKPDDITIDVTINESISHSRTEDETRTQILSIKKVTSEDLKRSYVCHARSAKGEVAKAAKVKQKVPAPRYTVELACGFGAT
Description: Blocking of IL1R1/IL1β/IL1RAP complex formation, cell-free ELISA. Particulars: FIG. 4. The class given is biochemical. On the procedure: High-binding 96-well plates were coated with IL1RAP-Fc protein (Sino Biological, Cat #10121-H02H) at concentration of 4 µg/ml and incubated overnight at 4° C. After 3× washes with 0.05% Tween-20 in PBS, pH 7.5, plates were blocked with 1% BSA in PBS for 1 hour at room temperature. Following, wells were incubated with each antibody at concentration of 50 nM for 1 hour at room temperature. Plates were then washed 3× and wells were incubated with premixed complex of IL1R1-His protein (Sino Biological, Cat #10126-H08H) at concentration of […] and IL1β cytokine (Sino Biological, Cat #10139-HNAE) at concentration of […] 1 hour at room temperature. IL1R1/IL1β complex was preincubated in assay buffer (1% BSA in PBS, pH 7.5) for 20 min at room temperature. After 3× washes, plates were incubated with anti-His HRP detection antibody (Medna, Cat #D8212, […]) for 1 hour at room temperature. Following 5× washes, SuperPico chemiluminescent substrate was applied to wells and signal was read on Spectramax M5.

The target in series [2] is T2, hIL1RAP (Homo sapiens, UniProt Q9NPH3).
T2 sequence (Q9NPH3 21-367 limits assumed): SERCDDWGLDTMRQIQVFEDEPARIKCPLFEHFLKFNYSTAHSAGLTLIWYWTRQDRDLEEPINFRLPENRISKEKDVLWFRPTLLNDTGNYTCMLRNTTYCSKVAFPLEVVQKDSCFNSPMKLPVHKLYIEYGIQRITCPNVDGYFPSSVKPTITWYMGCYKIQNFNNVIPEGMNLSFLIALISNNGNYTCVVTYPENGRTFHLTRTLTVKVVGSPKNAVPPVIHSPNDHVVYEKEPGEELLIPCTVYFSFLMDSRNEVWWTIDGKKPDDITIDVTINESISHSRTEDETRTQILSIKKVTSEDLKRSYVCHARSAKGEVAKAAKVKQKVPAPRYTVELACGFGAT
Briefly: Kinetics of IL1RAP mAbs by Octet, human IL1RAP. The class given is binding. Further details: extracellular domain His-tagged, Cat #10121-H08H; His; purchased Sino Biological lot MB08MA1301 (catalogue number not given). As to the method:
Antibodies were diluted in kinetics buffer (0.1% BSA, 0.02% Tween-20 and 0.05% NaN3 in PBS) and loaded onto 16 channel anti-mouse IgG Fc capture sensors (AMC, Cat #2001073; Sartorius, Göttingen, Germany). Human, huIL1RAP-His (Sino Biological, lot: MB08MA1301), and monkey, cyIL1RAP-His (Lake Pharma, NY, USA; lot:16205819371) proteins were titrated starting from the highest concentration of 100 nM and followed by 50 nM and 25 nM. Purified antibodies were loaded at 5 μg/ml in kinetics buffer. The experimental parameters selected to determine the kinetic constants were Baseline for 60 s, Loading of antibody to sensor for 180 s, Association of analyte to antibody for 120 s, Dissociation for 1200 s and Regeneration in 10 mM Glycine pH 1.7 for 4×30 s.
Regeneration cycle tracking was selected for 12 cycles. Binding to human and cynomolgus IL1RAP was measured and KD (M) kinetics were calculated. Also, the disassociation rate (Kdis) (1/s) and association rate (Kon) (1/Ms) kinetics were calculated (data not shown).
In general terms: In BLI a coated tip is dipped into the sample, and binding shifts an interference pattern.

Series [3] deals with AML patient-derived samples. Briefly: Colony formation of AML patient-derived samples, alone or with Azacitidine or Venetoclax. In kind it is cell-based, human. Particulars: 2 weeks. As to the method:
Methods: Clonogenicity of AML patient-derived samples were assayed using STLX2012 alone or in combination with Azacitindine (Aza) or Venetoclax (Ven). AML patient-derived samples were plated in MethoCult media and cultured in the presence of STLX2012 (50 μg/mL) or control IgG1 antibody (50 μg/mL), plus or minus Azacitidine (100 nM) or Venetoclax (100 nM), for 2 weeks. Colony numbers were counted manually using an inverted microscope and normalized to the control IgG1 control.

Series [4] relates to healthy control samples. Description: Clonogenic capacity of healthy control samples. In kind it is cell-based, human. Particulars: 333 nM, two weeks. On the procedure:
(§1) AML patient samples or healthy control samples (4000 cells) were washed and resuspended in 30 μl Iscove's Modified Dulbecco's Medium (IMDM) media supplemented with 2% FBS. Cells […] were mixed with 3 ml methylcellulose (MthoCult H4034 Optimum) supplemented with pen/strep or primocin (100 μg/ml) and IL1RAP antibodies (333 nM) and 1 ml were seeded in 35 mm dishes in duplicates. The dishes were incubated at 37° C./5% CO2 in humidified incubator for 14-16 days. Colonies were counted using inverted microscope.

In series [5] the test system is AML patient samples. Description: Clonogenic capacity of AML patient samples. The class given is cell-based, human. Particulars: 333 nM, two weeks. As to the method: as §1
The target of series [6] is T2, hIL1RAP. Briefly: Binding of mAbs to human IL1RAP protein by cell-free ELISA. More on the design: extracellular domain His-tagged, Cat #10121-H08H; His; purchased Sino Biological 10121-H08H. Particulars: FIG. 1. As to the method:
Recombinant human or mouse IL1RAP proteins (Sino Biological, Beijing, China; Cat #10121-H08H and Sino Biological, Cat #52657-M08H respectively) were diluted in PBS, pH 7.4 at concentration of 1 μg/ml, coated on high-binding 384-well clear plates and incubated overnight at 4° C. Following, plates were washed 3× with 0.05% Tween-20 in PBS, pH 7.5 and then blocked with 1% BSA in PBS for 1 hour at room temperature. After 3× washes, wells were incubated with each antibody at the highest concentration of 100 nM followed by seven serial half log dilutions (in 1% BSA and 0.05% Tween-20 in PBS) for 1 hour at room temperature. Plates were then washed 3× and incubated with […] detection antibody (Medna, TX, USA; Cat #D8212, 0.5 μg/ml diluted in 0.02% Tween-20 in PBS). After 5× washes, Supersignal ELISA Pico substrate (Thermofisher, MA, USA; Cat #37069) was applied to wells and chemiluminescent signal was read on Sprectramax L for 200 ms/well. Similarly, detection with specific κ and λ antibodies was conducted to define light chain isotyping.
Binding of mAbs to human IL1RAP protein was determined by cell-free ELISA. mAbs bound to human IL1RAP and EC50 values were calculated at the nM range.
For orientation: In an ELISA, binding on a coated surface is turned into a signal by an enzyme label.

B1: 74804_12A21B: anti-IL1RAP mAb; VH SEQ ID NO:6, VL SEQ ID NO:23, κ light chain (antibody, V domains shown)
VH: QVQLLQSGAEVKKPGSSVKVSCKASGGTFSIYAIDWVRQAPGQGLEWMGGIIPIFGTANSAQKFQGRVTITADKSTSTAYMELSSLRSEDTAVYYCARNGATSDAFDMWGQGTMVTVSS
VL: EIVLTQSPGTLSLSPGERATLSCRASLSVSSNYLAWFQQRPGQAPRLLIHGVSRRATGIPDRFSGSGSGTDFTLTISRLEPEDFAVYYCQQYGSSPLTFGGGTKVEIK
modifications: 74804_12A21B VH and 74804_29D13A VH; 74804_12A21B VL
For B1, the “Blocking of IL1R1/IL1β/IL1RAP complex formation” value in series [1] was “block IL1R1/IL1β/IL1RAP complex formation in a dose dependent manner”. Also, in series [2], the “hIL1RAP kdis(1/s)” value is 0.000287 s⁻¹ and the “hIL1RAP kon(1/Ms)” value was determined as 307700 M⁻¹ s⁻¹. Further, the “Colony numbers, combined with Azacitidine” value in series [3] (STLX2012 50 μg/mL + Azacitidine 100 nM) is “Further reduction in colony numbers”. Moreover, the “Colony numbers, combined with Venetoclax” value in series [3] (STLX2012 50 μg/mL + Venetoclax 100 nM) is listed as “Further reduction in colony numbers”. For the same molecule, in series [3] (STLX2012 50 μg/mL alone, vs control IgG1), the Colony numbers result is reported as “decreased colony numbers in AML patient samples”. Also, in series [4], the “Effect on clonogenic capacity of healthy control samples” value is “did not affect the clonogenic capacity of healthy control samples”. The “Inhibition of clonogenic capacity (colony formation)” value in series [5] is “inhibited the clonogenic capacity”. The “Binding to human IL1RAP” value in series [6] is “bound to human IL1RAP in a dose dependent manner”.

B2: 74804_43F04A: anti-IL1RAP mAb; VH SEQ ID NO:7, VL SEQ ID NO:22, κ light chain (antibody, V domains shown)
VH: QVQLLQSGAEVKKPGSSVKVSCKASGGTFSIYAIDWVRQAPGQGLEWMGGIIPIFGTENSAQNFQGRITITADKSTNTAYMELSSLRSEDTAVYYCARNGATSDAFDIWGQGTMVTVFS
VL: EIVLTQSPGTLSLSPGERATLSCRASLSVSSNYLAWFQQRPGQAPRLLIYGVSRRATGIPDRFSGSGSGTDFTLTISRLEPEDFAVYYCQQYGSSPLTFGGGTKVEIK
modifications: 74804_43F04A VH; 74804_07K10A VL, 74804_29D13A VL and 74804_43F04A VL
Turning to B2, in series [1], the “Blocking of IL1R1/IL1β/IL1RAP complex formation” value is on record as “block IL1R1/IL1β/IL1RAP complex formation in a dose dependent manner”. For the same molecule, in series [2], the “hIL1RAP kdis(1/s)” value came out at 0.000149 s⁻¹ and the “hIL1RAP kon(1/Ms)” value is 350200 M⁻¹ s⁻¹. Moreover, the “Binding to human IL1RAP” value in series [6] was “bound to human IL1RAP in a dose dependent manner”.
